Experimental findings from article doi:10.1101/2025.11.07.687288 are described below.

Where two headings read alike, the source gives them in different places.

Experiment [1] addresses E-cadherin V81D L175D, as the Dimerization Activated TurboID pair (Δ-DAT: ΔEcadN and ΔEcadC). The experiment in a line: split reporter.
The target is the same in experiment [2]. The experiment in a line: split reporter. This is another data set of the same source.

Regarding “E-cadherin V81D L175D, as the Dimerization Activated TurboID pair (Δ-DAT: ΔEcadN and ΔEcadC) (receptor)”, the biotinylation relative to WT-DAT, normalized for expression in experiment [1] stood at 38.7%; in experiment [2], 59%.
